This note sets out measurements from US20200199241A1 (Chugai, published 2020).

Changes are numbered by the printed parent chain. Numbers in names are those of the source.

In test [1] the target is T1, FcγRIIb (human, UniProt P31994 43-217, limits assumed).
T1 construct: SPR analyte; also called FcγIIB; CD32
T1 sequence: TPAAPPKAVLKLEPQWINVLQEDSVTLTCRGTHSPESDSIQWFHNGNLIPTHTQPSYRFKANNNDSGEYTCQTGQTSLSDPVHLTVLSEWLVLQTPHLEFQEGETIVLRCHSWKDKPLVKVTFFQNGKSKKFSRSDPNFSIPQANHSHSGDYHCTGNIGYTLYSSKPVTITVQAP
The test is described as follows: ratio of SPR KDs; reference IL6R-B3/IL6R-L.

For test [2], the target named is T2, FcγRIa (human, UniProt P12314 16-292, limits assumed).
T2 construct: SPR analyte; also called CD64
Kind of test: SPR (Biacore), antibody captured, FcγR analyte. (In SPR one partner is held on a chip, and binding of the other changes the refractive index at the surface.)
T2 sequence (P12314 16-292 limits assumed): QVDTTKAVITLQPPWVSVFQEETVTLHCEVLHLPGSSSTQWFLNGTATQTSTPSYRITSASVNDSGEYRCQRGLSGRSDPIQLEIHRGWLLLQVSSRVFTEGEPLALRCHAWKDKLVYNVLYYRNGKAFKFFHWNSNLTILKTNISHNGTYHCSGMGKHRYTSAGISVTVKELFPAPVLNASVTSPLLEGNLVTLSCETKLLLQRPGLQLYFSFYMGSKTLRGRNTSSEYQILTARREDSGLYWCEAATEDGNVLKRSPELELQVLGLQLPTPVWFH
From the text: (§1) Furthermore, KD(IIaR)/KD(IIb) and KD(IIaH)/KD(IIb) in the table respectively represent the value obtained by dividing the KD value of each variant for FcγRIIaR by the KD value of each variant for FcγRIIb, and the value obtained by dividing the KD value of each variant for FcγRIIaH by the KD value of each variant for FcγRIIb. KD(IIb) of the parent polypeptide/KD(IIb) of the altered polypeptide refers to the value obtained by dividing the KD value of the parent polypeptide for FcγRIIb by the KD value of each variant for FcγRIIb.

Test [3] concerns the target T3, FcγRIIa type R (human, UniProt P12318 36-217).
T3 construct: SPR analyte; also called FcγRIIaR; FcγRIIa(R)
T3 chain: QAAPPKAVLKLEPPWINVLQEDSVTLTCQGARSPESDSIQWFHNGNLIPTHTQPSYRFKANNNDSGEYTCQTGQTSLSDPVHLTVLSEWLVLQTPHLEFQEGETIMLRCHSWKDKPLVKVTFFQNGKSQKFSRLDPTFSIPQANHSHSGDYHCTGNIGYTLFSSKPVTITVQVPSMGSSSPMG
Kind of test: SPR (Biacore), antibody captured, FcγR analyte.
From the text: as §1

Test [4] has as its target T4, FcγRIIa type H (human, UniProt P12318 36-217).
T4 construct: SPR analyte; also called FcγRIIaH
T4 sequence: T3 chain with R133H
The test is described as follows: SPR (Biacore), antibody captured, FcγR analyte.
From the text: as §1

The target of test [5] is T1, FcγRIIb. The test is described as follows: SPR (Biacore), antibody captured, FcγR analyte.
From the text: as §1
In test [6] the target is T3, FcγRIIa type R. Kind of test: ratio of SPR KDs; stronger receptor here FcγRIIaR; reference IL6R-B3/IL6R-L (FcγRIIaH).
From the text: as §1
The target in test [7] is T5, FcγRIa (human, UniProt P12314 16-292, limits assumed).
T5 construct: also called CD64
Kind of test: SPR (Biacore), method of Example 14.
T5 sequence (P12314 16-292 limits assumed): as the sequence (P12314 16-292 limits assumed) above

In test [8] the target is T6, FcγRIIa type R (human, UniProt P12318 36-217).
T6 construct: also called FcγRIIaR; FcγRIIa(R)
T6 chain: T3 chain
The test is described as follows: SPR (Biacore), method of Example 14.

In test [9] the target is T7, FcγRIIa type H (human, UniProt P12318 36-217).
T7 construct: also called FcγRIIaH; FcγRIIa(H)
T7 sequence: T3 chain with R133H
Kind of test: SPR (Biacore), method of Example 14.

Test [10] has as its target T8, FcγRIIb (human, UniProt P31994 43-217, limits assumed).
T8 construct: also called FcγIIB; CD32
T8 sequence: T1 sequence
The test is described as follows: SPR (Biacore), method of Example 14.

Test [11] has as its target T9, FcγRIIIa type V (human, UniProt P08637 17-208, limits assumed).
T9 construct: also called FcγRIIIaV; FcγRIIIa(V)
Kind of test: SPR (Biacore), method of Example 14.
T9 sequence (P08637 17-208 F176V limits assumed): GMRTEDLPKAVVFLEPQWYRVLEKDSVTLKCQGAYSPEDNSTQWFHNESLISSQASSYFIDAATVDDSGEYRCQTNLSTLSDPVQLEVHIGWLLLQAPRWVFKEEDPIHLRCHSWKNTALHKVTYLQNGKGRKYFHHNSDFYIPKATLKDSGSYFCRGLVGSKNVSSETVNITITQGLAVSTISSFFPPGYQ

Test [12] deals with T8, FcγRIIb. The test is described as follows: ratio of SPR KD values, parent IL6R-B3/IL6R-L.
The target in test [13] is T8, FcγRIIb. Kind of test: SPR (Biacore); KD for FcγRIIaH divided by KD for FcγRIIb of the same antibody; column head in Table 52-1.
From the text: as §1
The target in test [14] is T8, FcγRIIb. Kind of test: SPR (Biacore); KD for FcγRIIaR divided by KD for FcγRIIb of the same antibody; column head in Table 52-1.
From the text: as §1
In the next test the target is T10, human FcγRIIIa(V) (human, UniProt P08637 17-208, limits assumed).
T10 construct: also called hFcgRIIIa(V); allotype V158
T10 sequence (P08637 other isoform, or with tags, fused parts or gaps limits assumed): as the sequence (P08637 17-208 F176V limits assumed) above, with A179S counted along it
Kind of test: SPR, antibody captured by Protein L, human FcγR as analyte, pH 7.4, 25 C.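 Also: biacore T100 or T200 with Protein L amine-coupled on a CM4 chip, FcγRs diluted in ACES saline with polysorbate 20, buffer-only injection as blank.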

In the next test the target is T11, human FcγRIa (human, UniProt P12314 16-292, limits assumed).
T11 construct: also called hFcgRIa; hFcgRI
T11 sequence (P12314 16-292 limits assumed): as the sequence (P12314 16-292 limits assumed) above
Described as above.

Another test has as its target T12, human FcγRIIa(R) (human, UniProt P12318 36-217).
T12 construct: also called hFcgRIIa(R); FcγRIIa type R
T12 chain: T3 chain
Described as above.

The next test concerns the target T13, human FcγRIIa(H) (human, UniProt P12318 36-217).
T13 construct: also called hFcgRIIa(H); FcγRIIa type H
T13 sequence: T3 chain with R133H
The description is as above.

For test [15], the target named is T14, FcγRIa (human, UniProt P12314 16-292, limits assumed).
T14 construct: also called FcgRIa; CD64
Kind of test: SPR (Biacore), FcγR over captured antibody.
T14 sequence (P12314 16-292 limits assumed): as above

The target in test [16] is T15, FcγRIIa type H (human, UniProt P12318 36-217).
T15 construct: also called FcγRIIaH; FcγRIIH
T15 sequence: T3 chain with R133H
The test is described as follows: SPR (Biacore), FcγR over captured antibody.

The target of test [17] is T16, FcγRIIb (human, UniProt P31994 43-217, limits assumed).
T16 construct: also called FcgRIIb; FcγIIB
T16 sequence: T1 sequence
The test is described as follows: SPR (Biacore), FcγR over captured antibody.

Test [18] addresses T17, FcγRIIIa type V (human, UniProt P08637 17-208, limits assumed).
T17 construct: also called FcγRIIIaV; FcgRIIIaV
Kind of test: SPR (Biacore), FcγR over captured antibody.
T17 sequence (P08637 other isoform, or with tags, fused parts or gaps limits assumed): as the sequence (P08637 17-208 F176V limits assumed) above, with A179S counted along it

Test [19] addresses T16, FcγRIIb. Kind of test: SPR (Biacore), KD of IL6R-B3/IL6R-L divided by KD of the variant.
From the text: as §1

Method for human FcγRIIIa(V): (§2) Binding activity between the antibodies and human FcγRIa, FcγRIIa(H), FcγRIIa(R), FcγRIIb and FcγRIIIa(F) (hereinafter referred to as human FcγRs) was evaluated using the BIACORE™ T100 or T200 surface plasmon resonance system (GE Healthcare). The antibodies being tested were captured by Protein L (ACTIGEN® protein (Alltech)) that was immobilized in suitable amounts on the CM4 Sensor Chip (GE Healthcare) by amine coupling. Next, the diluted human FcγRs and a running buffer used as a blank were injected to allow interaction with the antibodies captured on the sensor chip. A buffer consisting of 20 mmol/L N-(2-acetamido)-2-aminoethanesulfonic acid (ACES), 150 mmol/L NaCl and 0.05% (w/v) polysorbate 20 (Tween 20®) (pH 7.4) was used for the running buffer, and this buffer was also used to dilute the human FcγRs. 10 mmol/L glycine-HCl (pH 1.5) was used to regenerate the sensor chip. All measurements were carried out at 25° C.
Method for human FcγRIIa(H): as §2
Method for human FcγRIIa(R): as §2
Method for human FcγRIa: as §2

B1: IL6R-BP152/IL6R-L (antibody, human IgG1)
heavy: QVQLQESGPGLVKPSETLSLTCAVSGHSISHDHAWSWVRQPPGEGLEWIGFISYSGITNYNPSLQGRVTISRDNSKNTLYLQMNSLRAEDTAVYYCARSLARTTAMDYWGEGTLVTVSSASTKGPSVFPLAPSSKSTSGGTAALGCLVKDYFPEPVTVSWNSGALTSGVHTFPAVLQSSGLYSLSSVVTVPSSSLGTQTYICNVNHKPSNTKVDKKVEPKSCDKTHTCPPCPAPDYLGDDSVFLFPPKPKDTLMISRTPEVTCVVVDVSHEDPEVKFNWYVDGVEVHNAKTKPREEQDNSTYRVVSVLTVLHQDWLNGKEYKCKVSNAALPRPIEKTISKAKGQPREPQVYTLPPSRDELTKNQVSLTCLVKGFYPSDIAVEWESNGQPENNYKTTPPVLDSDGSFFLYSKLTVDKSRWQQGNVFSCSVMHEALHNHYTQESLSLSP
light: DIQMTQSPSSLSASVGDRVTITCRASQDISSYLNWYQQKPGKAPKLLIYYTSRLHSGVPSRFSGSGSGTDFTFTISSLQPEDIATYYCQQGNTLPYTFGQGTKVEIK
With B1, the “KD(IIb) of the parent polypeptide/KD(IIb) of altered polypeptide” value (“KD(IIb) … of altered polypeptide” below) with FcγRIIb [1] was found to be 75. Besides, the Kd (in general, a measure of binding affinity in units of concentration) with FcγRIa [2] is 73 nM; with FcγRIIa type R [3], 810 nM; in the test with FcγRIIa type H [4], 5.6 µM; with FcγRIIb [5], 41 nM. Further, the “KD of the stronger of FcγRIIaR/FcγRIIaH binding of the variant / that of the parent polypeptide” value in the test with FcγRIIa type R [6] was found to be 1.

B2: IL6R-BP213/IL6R-L (antibody, human IgG1)
heavy: B1 heavy with Y236L, D239G, H270D, P273G, D298Y, A328K
light: B1 light
notes: Anti-IL-6R human IgG1 variant; copies: 2 + 2
B2: the Kd in the test with FcγRIa [7] was found to be 4.1 nM; in the test with FcγRIIa type R [8], 3.1 µM; in the test with FcγRIIa type H [9], 24 µM; in the test with FcγRIIb [10] it was 180 nM; with FcγRIIIa type V [11], 63 µM. In the test with FcγRIIb [12], the “KD(IIb) … of altered polypeptide” value turned out to be 17.6 fold. Moreover, in the test with FcγRIIb [13], the “KD(IIaH)/KD(IIb)” value amounted to 136. Further, in the test with FcγRIIb [14], the “KD(IIaR)/KD(IIb)” value amounted to 17.7.

B3: IL6R-BP178/IL6R-L (antibody, human IgG1)
heavy: B1 heavy with Y236L, P273G, D298Y, A328K, R332K
light: B1 light
For B3, in the test with FcγRIIb [1], the “KD(IIb) … of altered polypeptide” value came out at 60.1. The dissociation constant (Kd) with FcγRIa [2] was 43 nM; with FcγRIIa type R [3] it was 930 nM; in the test with FcγRIIa type H [4] it was 14 µM; with FcγRIIb [5] it was 51 nM. Besides, the “KD of the stronger of FcγRIIaR/FcγRIIaH binding of the variant / that of the parent polypeptide” value with FcγRIIa type R [6] was 1.2.

B4: antibody with VH3-IgG1-F1324 heavy chain and L(WT)-CK light chain (antibody)
heavy: QVQLQESGPGLVKPSETLSLTCAVSGHSISHDHAWSWVRQPPGEGLEWIGFISYSGITNYNPSLQGRVTISRDNSKNTLYLQMNSLRAEDTAVYYCARSLARTTAMDYWGEGTLVTVSSASTKGPSVFPLAPSSKSTSGGTAALGCLVKDYFPEPVTVSWNSGALTSGVHTFPAVLQSSGLYSLSSVVTVPSSSLGTQTYICNVNHKPSNTKVDKKVEPKSCDKTHTCPPCPAPEAAGGPSVFLFPPKPKDTLYISRTPEVTCVVVDVSHEDPEVKFNWYVDGVEVHNAKTKPREEQYNSTYRVVSVLTVLHQDWLNGKEYKCKVSNKALPAPIEKTISKAKGQPREPQVYTLPPSRDELTKNQVSLTCLVKGFYPSDIAVEWESNGQPENNYKTTPPVLDSDGSFFLYSKLTVDKSRWQQGNVFSCSVMHEALHYHVTQKSLSLSP
light: not shown
notes: L234A/L235A on VH3-IgG1-F890; copies: 2 + 2
B4: the “BINDING AMOUNT (RU)” value with human FcγRIIIa(V) was determined as 39.5 RU; with human FcγRIa it was 227 RU; in the test with human FcγRIIa(R) it was 9.1 RU; with human FcγRIIa(H), 6.97 RU.

B5: IL6R-BP121/IL6R-L (antibody, human IgG1)
heavy: B1 heavy with D235E, Y236L, D239G, D298Y, A328Q, R332A
light: B1 light
notes: IgG1; Fc variant of IL6R-B3; copies: 2 + 2
For B5, the dissociation constant Kd in the test with FcγRIa [15] is 11 nM; in the test with FcγRIIa type H [16], 44 µM; in the test with FcγRIIb [17], 1100 nM; in the test with FcγRIIIa type V [18] it was 52 µM. In addition, the “KD(IIb) … of altered polypeptide” value with FcγRIIb [19] amounted to 2.8 fold.

B6: IL6R-BP110/IL6R-L (antibody, human IgG1)
heavy: B1 heavy with D235E, Y236L, D239G, H270N, D298Y, A328K, R332A
light: B1 light
notes: as for B5
Turning to B6, the dissociation constant (Kd) stood at 7.3 nM with FcγRIa [15], 47 µM in the test with FcγRIIa type H [16], 1500 nM with FcγRIIb [17] and 64 µM in the test with FcγRIIIa type V [18]. Moreover, in the test with FcγRIIb [19], the “KD(IIb) … of altered polypeptide” value came to 2.1 fold.

B7: IL6R-BP912/IL6R-L (antibody, human IgG1)
heavy: B1 heavy with D235E, Y236L, D239G, D298Y, A328K
light: B1 light
notes: as for B5
For the molecule B7, the Kd was 38 nM with FcγRIa [15], 38 µM in the test with FcγRIIa type H [16], 1500 nM with FcγRIIb [17] and 78 µM with FcγRIIIa type V [18]. Besides, the “KD(IIb) … of altered polypeptide” value in the test with FcγRIIb [19] worked out at 2.1 fold.

B8: IL6R-2B128/IL6R-L (antibody, human IgG1)
heavy: B1 heavy with D235E, Y236L, D239G, A328K, R332A
light: B1 light
notes: as for B5
Take B8: the Kd in the test with FcγRIa [15] is 13 nM; with FcγRIIa type H [16] it was 34 µM; with FcγRIIb [17], 1400 nM; in the test with FcγRIIIa type V [18], 72 µM. In the test with FcγRIIb [19], the “KD(IIb) … of altered polypeptide” value turned out to be 2.1 fold.

B9: IL6R-2B169/IL6R-L (antibody, human IgG1)
heavy: B1 heavy with D235E, Y236L, D239G, D298Y, V325I, A328K, R332A
light: B1 light
notes: as for B5
Take B9: the Kd came to 25 nM in the test with FcγRIa [15], 48 µM with FcγRIIa type H [16], 1200 nM with FcγRIIb [17] and 75 µM in the test with FcγRIIIa type V [18]. For the same molecule, the “KD(IIb) … of altered polypeptide” value with FcγRIIb [19] was 2.6 fold.
